Experimental data: PMC3770802 (Cytokine, 2013)

B1: IFN-αR1/EYFP (receptor, human, UniProt P17181 28-557, looked up)
chain: KNLKSPQKVEVDIIDDNFILRWNRSDESVGNVTFSFDYQKTGMDNWIKLSGCQNITSTKCNFSSLKLNVYEEIKLRIRAEKENTSSWYEVDSFTPFRKAQIGPPEVHLEAEDKAIVIHISPGTKDSVMWALDGLSFTYSLVIWKNSSGVEERIENIYSRHKIYKLSPETTYCLKVKAALLTSWKIGVYSPVHCIKTTVENELPPPENIEVSVQNQNYVLKWDYTYANMTFQVQWLHAFLKRNPGNHLYKWKQIPDCENVKTTQCVFPQNVFQKGIYLLRVQASDGNNTSFWSEEIKFDTEIQAFLLPPVFNIRSLSDSFHIYIGAPKQSGNTPVIQDYPLIYEIIFWENTSNAERKIIEKKTDVTVPNLKPLTVYCVKARAHTMDEKLNKSSVFSDAVCEKTKPGNTSKIWLIVGICIALFALPFVIYAAKVFLRCINYVFFPSLKPSSSIDEYFSEQPLKNLLLSTSEEQIEKCFIIENISTIATVEETNQTDEDHKKYSSQTSQDSGNYSNEDESESKTSEELQQDFV
B2: IFN-λR1/CiFP (receptor, human, UniProt Q8IU57 21-520, looked up)
chain: RPRLAPPQNVTLLSQNFSVYLTWLPGLGNPQDVTYFVAYQSSPTRRRWREVEECAGTKELLCSMMCLKKQDLYNKFKGRVRTVSPSSKSPWVESEYLDYLFEVEPAPPVLVLTQTEEILSANATYQLPPCMPPLDLKYEVAFWKEGAGNKTLFPVTPHGQPVQITLQPAASEHHCLSARTIYTFSVPKYSKFSKPTCFLLEVPEANWAFLVLPSLLILLLVIAAGGVIWKTLMGNPWFQRAKMPRALDFSGHTHPVATFQPSRPESVNDLFLCPQKELTRGVRPTPRVRAPATQQTRWKKDLAEDEEEEDEEDTEDGVSFQPYIEPPSFLGQEHQAPGHSEAGGVDSGRPRAPLVPSEGSSAWDSSDRSWASTVDSSWDRAGSSGYLAEKGPGQGPGGDGHQESLPPPEFSKDSGFLEELPEDNLSSWATWGTLPPEPNLVPGGPPVSLQTLTFCWESSPEEEEEARESEIEDSDAGSWGAESTQRTEDRGRTLGHYMAR

How the values were obtained:
IFN-αR2c/ECFP = target: T1, IFN-αR2c/ECFP (human, UniProt P48551 27-515); experiment: FRET or BRET
T1 sequence (looked up): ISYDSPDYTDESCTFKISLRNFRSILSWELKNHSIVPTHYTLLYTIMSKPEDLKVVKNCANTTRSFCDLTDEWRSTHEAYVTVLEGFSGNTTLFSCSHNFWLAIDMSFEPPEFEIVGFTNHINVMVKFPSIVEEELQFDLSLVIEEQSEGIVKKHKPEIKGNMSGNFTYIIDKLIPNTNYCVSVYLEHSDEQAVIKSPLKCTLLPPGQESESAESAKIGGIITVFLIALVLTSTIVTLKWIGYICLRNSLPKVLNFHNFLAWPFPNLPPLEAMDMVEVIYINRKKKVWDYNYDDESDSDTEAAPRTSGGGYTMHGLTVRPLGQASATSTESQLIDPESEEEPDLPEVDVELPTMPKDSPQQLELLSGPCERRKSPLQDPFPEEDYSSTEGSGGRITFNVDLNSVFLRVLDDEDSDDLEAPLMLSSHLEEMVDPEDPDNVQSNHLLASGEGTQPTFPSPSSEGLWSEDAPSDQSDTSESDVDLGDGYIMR

IL-10R2/StFP = target: T2, IL-10R2/StFP (human, UniProt Q08334 20-325); experiment: FRET or BRET
T2 sequence (looked up): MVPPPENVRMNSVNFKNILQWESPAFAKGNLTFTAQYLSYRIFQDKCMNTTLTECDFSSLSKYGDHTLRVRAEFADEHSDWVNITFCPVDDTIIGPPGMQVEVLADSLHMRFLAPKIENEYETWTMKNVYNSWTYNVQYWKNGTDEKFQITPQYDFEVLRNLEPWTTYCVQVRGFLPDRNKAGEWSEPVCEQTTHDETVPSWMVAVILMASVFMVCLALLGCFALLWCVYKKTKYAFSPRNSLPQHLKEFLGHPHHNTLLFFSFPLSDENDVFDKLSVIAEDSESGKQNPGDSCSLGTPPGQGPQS

| Binder | EC50* (relative), rarely seen (IFN-αR2c/ECFP) | EC50* (relative) (IL-10R2/StFP) | EC50* (relative), rarely seen (IL-10R2/StFP) |
| --- | --- | --- | --- |
| B1 | 4 pairs/cell |  |  |
| B2 |  | 200 pairs/cell | 70 pairs/cell |
